Laboratory results: patent EP4559472A1

Biological target: Biotinylated C4b (UniProt P0C0L4)
Assay: SPR, biotinylated C4b on streptavidin chip, 1:1 steady-state affinity model

B1: C4BP(1-4) (protein)
chain: AGNCGPPPTLSFAAPMDITLTETRFKTGTTLKYTCLPGYVRSHSTQTLTCNSDGEWVYNTFCIYKRCRHPGELRNGQVEIKTDLSFGSQIEFSCSEGFFLIGSTTSRCEVQDRGVGWSHPLPQCEIVKCKPPPDIRNGRHSGEENFYAYGFSVTYSCDPRFSLLGHASISCTVENETIGVWRPSPPTCEKITCRKPDVSHGEMVSGFGPIYNYKDTIVFKCQKGFVLRGSSVIHCDADSKWNPSPPACEP
A Kd of 2900 nM was found for B1 in this work.
